PMC2171815

Biological target: Cog3p (subunit 3 of the conserved oligomeric Golgi (COG) complex) (rat (endogenous in rat liver Golgi))
Experiment: co-IP

percent of total co-precipitated: 5%
B1: GS28 (intra-Golgi v-SNARE) (natural protein)
chain: MAAGTSNYWEDLRKQARQLENELDLKLVSFSKLCTSYSHSSARDGGRDRYSSDTTPLLNGSSQDRMFETMAIEIEQLLARLTGVNDKMAEYTHSAGVPSLNAALMHTLQRHRDILQDYTHEFHKTKANFMAIRERENLMGSVRKDIESYKSGSGVNNRRTELFLKEHDHLRNSDRLIEETISIAMATKENMTSQRGMLKSIHSKMNTLANRFPAVNSLIQRINLRKRRDSLILGGVIGICTILLLLYAFH
